In patent US20220306762A1 (CRYSTAL BIOSCIENCE, published 2022):
Numbering of substitutions follows the chain as printed. Like-named read-outs stand apart in the source and are kept apart here.

B1: 40769p1.1.H10 (antibody, V domains shown)
VH: EVQLLESGGGLVQPGGSLRLSCAAFGFTFSDYEMNWVRQAPGKGLEWVSSISITGSWTGYADSVKGRFTISRDNSKNTLYLQMNNLRAEDTAVYYCANYKSYYGMDVWGQGTTVTVSS
VL: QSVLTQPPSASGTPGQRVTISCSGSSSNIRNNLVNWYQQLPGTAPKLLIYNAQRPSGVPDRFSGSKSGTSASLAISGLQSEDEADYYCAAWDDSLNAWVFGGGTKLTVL
notes: Human V regions from transgenic chicken, cloned as scFv-Fc; The variable domains can be found in the listing by the CDRs
B2: 40769p2.1.C4 (antibody, V domains shown)
VH: B1 VH with Q13H, F25S, S56D, W57F, G59Y, M105L
VL: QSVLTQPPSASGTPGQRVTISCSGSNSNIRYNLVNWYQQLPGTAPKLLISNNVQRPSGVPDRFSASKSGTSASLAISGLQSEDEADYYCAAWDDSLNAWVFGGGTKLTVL
notes: as for B1

Legend:
[1] = molecular target: T1, His-tagged human CD38 (ACRO Biosystems cat #CD8-H5224) (human, UniProt P28907 43-300); experiment: SPR (Carterra LSA), antibody captured by anti-human Fc, His-tagged CD38 injected
T1 construct: Bought His-tagged protein

[2] = molecular target: T2, His-tagged cynomolgus monkey CD38 (ACRO Biosystems cat # CD8-05223 [sic]) (cynomolgus monkey, UniProt Q5VAN0 43-301); experiment: as above
T2 construct: Bought His-tagged protein; also called cynomolgus CD38

[3] = molecular target: T3, CD38 on Daudi target cells (UniProt P28907 1-300, limits assumed); experiment: cell-based or functional assay
[4] = molecular target: T3, CD38 on Daudi target cells; experiment: cell-based or functional assay; remark: listed apart in the source
[5] = molecular target: T1, His-tagged human CD38 (ACRO Biosystems …); experiment: SPR (Carterra LSA), antibody captured by anti-human Fc, His-tagged CD38 injected; IgG by the head of Table 5
[6] = molecular target: T2, His-tagged cynomolgus monkey CD38 (ACRO …); experiment: as above

Binder	Kd [1] [nM]	Kd [2] [nM]	ADCC EC50 [3] [ng/mL]	Lowest Remaining Target % [3] [%]	Max RLU [3] [RLU]	PBMC ADCC EC50 [3] [ng/mL]	Lowest Remaining Target % [4] [%]	Max RLU [4] [RLU]	PBMC ADCC EC50 [4] [ng/mL]	Reporter cell ADCC EC50 [4] [ng/mL]	Kd [5] [nM]	Kd [6] [nM]
B1	0.02	3.08	20.7	54	1.94e+06	0.411						
B2			~12.2	63	1.44e+06	0.227	63	1.44e+06	0.227	~12.2	1.46	1.12
